# Assay results taken from US12630600B2 (MEDIMMUNE LIMITED, priority 2022, dated 2026).
# Starred links: 1 amine or outer side, 2 acyl side, 3 side chain; linkers in the order of their positions; H or OH if unused. Non-standard residues stand in square brackets, D forms with d. Groups on a side chain read outwards from the residue. No end group written: not given here. *: point of attachment. C20 diacid = O=C(O)CCCCCCCCCCCCCCCCCCC(=O)*; C18 diacid = O=C(O)CCCCCCCCCCCCCCCCC(=O)*; γGlu = O=C(O)[C@H](CCC(=O)[*:2])N[*:1]; αMeF = C[C@](N)(Cc1ccccc1)C(=O)O; AEEA = NCCOCCOCC(=O)O; Aib = CC(C)(N)C(=O)O
# Legend:
# human glucagon receptor = human glucagon receptor (human, UniProt P47871); test: cell-based or functional assay
# human GLP-1 receptor = human GLP-1 receptor (human, UniProt P43220); test: cell-based or functional assay
Binder,cAMP production EC50 (human glucagon receptor) [nM],cAMP production EC50 (human GLP-1 receptor) [nM]
H[Aib]QGTFTSDVSK[αMeF]LDSK([AEEA-AEEA-γGlu-C18 diacid])RARDFVQWLL[Aib]T-OH (N-terminus assumed; SMILES CC(C)C[C@H](NC(=O)[C@H](Cc1c[nH]c2ccccc12)NC(=O)[C@H](CCC(N)=O)NC(=O)[C@@H](NC(=O)[C@H](Cc1ccccc1)NC(=O)[C@H](CC(=O)O)NC(=O)[C@H](CCCNC(=N)N)NC(=O)[C@H](C)NC(=O)[C@H](CCCNC(=N)N)NC(=O)[C@H](CCCCNC(=O)COCCOCCNC(=O)COCCOCCNC(=O)CC[C@H](NC(=O)CCCCCCCCCCCCCCCCC(=O)O)C(=O)O)NC(=O)[C@H](CO)NC(=O)[C@H](CC(=O)O)NC(=O)[C@H](CC(C)C)NC(=O)[C@](C)(Cc1ccccc1)NC(=O)[C@H](CCCCN)NC(=O)[C@H](CO)NC(=O)[C@@H](NC(=O)[C@H](CC(=O)O)NC(=O)[C@H](CO)NC(=O)[C@@H](NC(=O)[C@H](Cc1ccccc1)NC(=O)[C@@H](NC(=O)CNC(=O)[C@H](CCC(N)=O)NC(=O)C(C)(C)NC(=O)[C@@H](N)Cc1c[nH]cn1)[C@@H](C)O)[C@@H](C)O)C(C)C)C(C)C)C(=O)N[C@@H](CC(C)C)C(=O)NC(C)(C)C(=O)N[C@H](C(=O)O)[C@@H](C)O) [Peptide 36],0.278,0.0431
H[Aib]QGTFTSDVSK[αMeF]LDTKRARDFVQWLLE[Aib]G-OH (not fully specified (residue 17)) [Peptide 520],1.62,0.543
H[Aib]QGTFTSDVSK[αMeF]LDSK([AEEA-AEEA-γGlu-C18 diacid])RAEDFVQWLL[Aib]T-OH (N-terminus assumed; SMILES CC(C)C[C@H](NC(=O)[C@H](Cc1c[nH]c2ccccc12)NC(=O)[C@H](CCC(N)=O)NC(=O)[C@@H](NC(=O)[C@H](Cc1ccccc1)NC(=O)[C@H](CC(=O)O)NC(=O)[C@H](CCC(=O)O)NC(=O)[C@H](C)NC(=O)[C@H](CCCNC(=N)N)NC(=O)[C@H](CCCCNC(=O)COCCOCCNC(=O)COCCOCCNC(=O)CC[C@H](NC(=O)CCCCCCCCCCCCCCCCC(=O)O)C(=O)O)NC(=O)[C@H](CO)NC(=O)[C@H](CC(=O)O)NC(=O)[C@H](CC(C)C)NC(=O)[C@](C)(Cc1ccccc1)NC(=O)[C@H](CCCCN)NC(=O)[C@H](CO)NC(=O)[C@@H](NC(=O)[C@H](CC(=O)O)NC(=O)[C@H](CO)NC(=O)[C@@H](NC(=O)[C@H](Cc1ccccc1)NC(=O)[C@@H](NC(=O)CNC(=O)[C@H](CCC(N)=O)NC(=O)C(C)(C)NC(=O)[C@@H](N)Cc1c[nH]cn1)[C@@H](C)O)[C@@H](C)O)C(C)C)C(C)C)C(=O)N[C@@H](CC(C)C)C(=O)NC(C)(C)C(=O)N[C@H](C(=O)O)[C@@H](C)O) [Peptide 37],2.75,0.0686
H[Aib]QGTFTSDVSK[αMeF]LDSK([AEEA-AEEA-γGlu-C20 diacid])RAQDFVRWLL[Aib]E-OH (N-terminus assumed; SMILES CC(C)C[C@H](NC(=O)[C@H](Cc1c[nH]c2ccccc12)NC(=O)[C@H](CCCNC(=N)N)NC(=O)[C@@H](NC(=O)[C@H](Cc1ccccc1)NC(=O)[C@H](CC(=O)O)NC(=O)[C@H](CCC(N)=O)NC(=O)[C@H](C)NC(=O)[C@H](CCCNC(=N)N)NC(=O)[C@H](CCCCNC(=O)COCCOCCNC(=O)COCCOCCNC(=O)CC[C@H](NC(=O)CCCCCCCCCCCCCCCCCCC(=O)O)C(=O)O)NC(=O)[C@H](CO)NC(=O)[C@H](CC(=O)O)NC(=O)[C@H](CC(C)C)NC(=O)[C@](C)(Cc1ccccc1)NC(=O)[C@H](CCCCN)NC(=O)[C@H](CO)NC(=O)[C@@H](NC(=O)[C@H](CC(=O)O)NC(=O)[C@H](CO)NC(=O)[C@@H](NC(=O)[C@H](Cc1ccccc1)NC(=O)[C@@H](NC(=O)CNC(=O)[C@H](CCC(N)=O)NC(=O)C(C)(C)NC(=O)[C@@H](N)Cc1c[nH]cn1)[C@@H](C)O)[C@@H](C)O)C(C)C)C(C)C)C(=O)N[C@@H](CC(C)C)C(=O)NC(C)(C)C(=O)N[C@@H](CCC(=O)O)C(=O)O) [Peptide 153],0.099,0.0412
H[Aib]QGTFTSDVSK[αMeF]LDSK([AEEA-AEEA-γGlu-C18 diacid])RARDFVRWLL[Aib]TE-OH (also: αMePhe at 23 (V)) [Peptide 166],0.27,0.048

# Second part, the binder after the results:
cAMP production EC50 (human glucagon receptor) [nM],cAMP production EC50 (human GLP-1 receptor) [nM],Binder
0.161,0.0824,H[Aib]QGTFTSDVSK[αMeF]LDSK([AEEA-AEEA-γGlu-C18 diacid])RAQDFVQWLL[Aib]E-OH (N-terminus assumed; SMILES CC(C)C[C@H](NC(=O)[C@H](Cc1c[nH]c2ccccc12)NC(=O)[C@H](CCC(N)=O)NC(=O)[C@@H](NC(=O)[C@H](Cc1ccccc1)NC(=O)[C@H](CC(=O)O)NC(=O)[C@H](CCC(N)=O)NC(=O)[C@H](C)NC(=O)[C@H](CCCNC(=N)N)NC(=O)[C@H](CCCCNC(=O)COCCOCCNC(=O)COCCOCCNC(=O)CC[C@H](NC(=O)CCCCCCCCCCCCCCCCC(=O)O)C(=O)O)NC(=O)[C@H](CO)NC(=O)[C@H](CC(=O)O)NC(=O)[C@H](CC(C)C)NC(=O)[C@](C)(Cc1ccccc1)NC(=O)[C@H](CCCCN)NC(=O)[C@H](CO)NC(=O)[C@@H](NC(=O)[C@H](CC(=O)O)NC(=O)[C@H](CO)NC(=O)[C@@H](NC(=O)[C@H](Cc1ccccc1)NC(=O)[C@@H](NC(=O)CNC(=O)[C@H](CCC(N)=O)NC(=O)C(C)(C)NC(=O)[C@@H](N)Cc1c[nH]cn1)[C@@H](C)O)[C@@H](C)O)C(C)C)C(C)C)C(=O)N[C@@H](CC(C)C)C(=O)NC(C)(C)C(=O)N[C@@H](CCC(=O)O)C(=O)O) [Peptide 34]
0.386,0.172,H[Aib]QGTFTSDVSK[αMeF]LDTK([γGlu-γGlu-AEEA-AEEA-γGlu-γGlu-C18 diacid])RARDFVQWLLE[Aib]G-OH (N-terminus assumed; SMILES CC(C)C[C@H](NC(=O)[C@H](Cc1c[nH]c2ccccc12)NC(=O)[C@H](CCC(N)=O)NC(=O)[C@@H](NC(=O)[C@H](Cc1ccccc1)NC(=O)[C@H](CC(=O)O)NC(=O)[C@H](CCCNC(=N)N)NC(=O)[C@H](C)NC(=O)[C@H](CCCNC(=N)N)NC(=O)[C@H](CCCCNC(=O)CC[C@H](NC(=O)CC[C@H](NC(=O)COCCOCCNC(=O)COCCOCCNC(=O)CC[C@H](NC(=O)CC[C@H](NC(=O)CCCCCCCCCCCCCCCCC(=O)O)C(=O)O)C(=O)O)C(=O)O)C(=O)O)NC(=O)[C@@H](NC(=O)[C@H](CC(=O)O)NC(=O)[C@H](CC(C)C)NC(=O)[C@](C)(Cc1ccccc1)NC(=O)[C@H](CCCCN)NC(=O)[C@H](CO)NC(=O)[C@@H](NC(=O)[C@H](CC(=O)O)NC(=O)[C@H](CO)NC(=O)[C@@H](NC(=O)[C@H](Cc1ccccc1)NC(=O)[C@@H](NC(=O)CNC(=O)[C@H](CCC(N)=O)NC(=O)C(C)(C)NC(=O)[C@@H](N)Cc1c[nH]cn1)[C@@H](C)O)[C@@H](C)O)C(C)C)[C@@H](C)O)C(C)C)C(=O)N[C@@H](CC(C)C)C(=O)N[C@@H](CCC(=O)O)C(=O)NC(C)(C)C(=O)NCC(=O)O) [Peptide 519]
0.548,0.213,H[Aib]QGTFTSDVSK[αMeF]LDSK([AEEA-AEEA-γGlu-C18 diacid])RAQDFVQWLE[Aib]T-OH (N-terminus assumed; SMILES CC(C)C[C@H](NC(=O)[C@H](Cc1c[nH]c2ccccc12)NC(=O)[C@H](CCC(N)=O)NC(=O)[C@@H](NC(=O)[C@H](Cc1ccccc1)NC(=O)[C@H](CC(=O)O)NC(=O)[C@H](CCC(N)=O)NC(=O)[C@H](C)NC(=O)[C@H](CCCNC(=N)N)NC(=O)[C@H](CCCCNC(=O)COCCOCCNC(=O)COCCOCCNC(=O)CC[C@H](NC(=O)CCCCCCCCCCCCCCCCC(=O)O)C(=O)O)NC(=O)[C@H](CO)NC(=O)[C@H](CC(=O)O)NC(=O)[C@H](CC(C)C)NC(=O)[C@](C)(Cc1ccccc1)NC(=O)[C@H](CCCCN)NC(=O)[C@H](CO)NC(=O)[C@@H](NC(=O)[C@H](CC(=O)O)NC(=O)[C@H](CO)NC(=O)[C@@H](NC(=O)[C@H](Cc1ccccc1)NC(=O)[C@@H](NC(=O)CNC(=O)[C@H](CCC(N)=O)NC(=O)C(C)(C)NC(=O)[C@@H](N)Cc1c[nH]cn1)[C@@H](C)O)[C@@H](C)O)C(C)C)C(C)C)C(=O)N[C@@H](CCC(=O)O)C(=O)NC(C)(C)C(=O)N[C@H](C(=O)O)[C@@H](C)O) [Peptide 33]
0.0773,0.031,H[Aib]QGTFTSDVSK[αMeF]LDTK([AEEA-AEEA-γGlu-γGlu-C18 diacid])RARDFVQWLLE[Aib]G-OH (N-terminus assumed; SMILES CC(C)C[C@H](NC(=O)[C@H](Cc1c[nH]c2ccccc12)NC(=O)[C@H](CCC(N)=O)NC(=O)[C@@H](NC(=O)[C@H](Cc1ccccc1)NC(=O)[C@H](CC(=O)O)NC(=O)[C@H](CCCNC(=N)N)NC(=O)[C@H](C)NC(=O)[C@H](CCCNC(=N)N)NC(=O)[C@H](CCCCNC(=O)COCCOCCNC(=O)COCCOCCNC(=O)CC[C@H](NC(=O)CC[C@H](NC(=O)CCCCCCCCCCCCCCCCC(=O)O)C(=O)O)C(=O)O)NC(=O)[C@@H](NC(=O)[C@H](CC(=O)O)NC(=O)[C@H](CC(C)C)NC(=O)[C@](C)(Cc1ccccc1)NC(=O)[C@H](CCCCN)NC(=O)[C@H](CO)NC(=O)[C@@H](NC(=O)[C@H](CC(=O)O)NC(=O)[C@H](CO)NC(=O)[C@@H](NC(=O)[C@H](Cc1ccccc1)NC(=O)[C@@H](NC(=O)CNC(=O)[C@H](CCC(N)=O)NC(=O)C(C)(C)NC(=O)[C@@H](N)Cc1c[nH]cn1)[C@@H](C)O)[C@@H](C)O)C(C)C)[C@@H](C)O)C(C)C)C(=O)N[C@@H](CC(C)C)C(=O)N[C@@H](CCC(=O)O)C(=O)NC(C)(C)C(=O)NCC(=O)O) [Peptide 518]
